One may read the IC50 as the concentration that gives 50% inhibition. Read a high IC50 as weaker potency in that assay.

The target in one assay is T1, neutravidin (UniProt P02701 25-152).
T1 construct: Control wells without biotinylated IL-1 Beta
The assay can be described thus: phage ELISA, crude phage extract, anti-M13-HRP.

For assay [1], the target named is human IL-1 Beta (human) (UniProt P01584). The assay can be described thus: competition ELISA, periplasmic extract; competitor: coated mouse mAb (Diaclone); reduced signal means competition. (ELISA stands for enzyme-linked immunosorbent assay.)
For assay [2] the target is unchanged. Description: cell-based or functional assay.
Assay [3] has the same target. The assay can be described thus: ELISA based competition assay; competitor: antagonistic reference mouse mAb (Diaclone).

T1 sequence (P02701 25-152): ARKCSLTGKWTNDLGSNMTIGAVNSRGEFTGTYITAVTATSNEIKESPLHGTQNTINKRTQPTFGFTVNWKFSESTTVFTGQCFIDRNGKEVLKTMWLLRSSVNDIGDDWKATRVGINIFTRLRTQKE
Chain of human IL-1 Beta (human) (P01584 117-269 limits assumed): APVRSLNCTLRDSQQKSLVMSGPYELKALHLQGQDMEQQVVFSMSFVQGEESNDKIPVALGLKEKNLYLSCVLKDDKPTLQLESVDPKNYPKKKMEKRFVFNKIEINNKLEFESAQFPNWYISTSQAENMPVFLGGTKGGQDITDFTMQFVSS

B1: wt 1F2 gene3-Fab fusion on phage (Fab, V domains shown)
VH: EVQLVESGGGLVQPGGSLRLSCAASGFTFSTYAMSWVRQAPGKGPEWVSGINTGGGSTGYADSVKGRFTISRDNAKNTLYLQMNSLKPEDTAVYYCAKDWMATTPWGQGTQVTVSS
VL: QAVVTQEPSLSVSPGGTVTLTCGLSSGSVTTNNYPGWFQQTPGQAPRTLIYNTNNRHSGVPSRFSGSISGNKAALTITGAQPEDEADYYCALYMSSGSNNAVFGGGTHLTVLG
As for B1, the binding result with neutravidin is reported as “no binding”.

B2: safe variant 1F2 gene3-Fab fusion on phage (Fab, V domains shown)
VH: EVQLLESGGGLVQPGGSLRLSCAASGFTFSTYAMSWVRQAPGKGPEWVSGINTGGGSTGYADSVKGRFTISRDNSKNTLYLQMNSLRPEDTAVYYCAKDWMATTPWGQGTQVTVSS
VL: QTVVTQEPSFSVSPGGTVTLTCGLSSGSVTTNNYPGWFQQTPGQAPRTLIYNTNNRHSGVPSRFSGSILGNKAALTITGAQADDESDYYCALYMSSGSNNAVFGGGTKLTVLG
notes: The text says 'partially humanized V lambda fused to human C lambda and CH1'; the result sentence speaks of back mutations in both VL and VH, so the safe VH is used; also called safe 1F2; partially humanized 1F2
Turning to B2, in the assay with neutravidin, the binding result was “no binding”.

B3: hum 1F2 gene3-Fab fusion on phage (Fab, V domains shown)
VH: EVQLLESGGGLVQPGGSLRLSCAASGFTFSTYAMSWVRQAPGKGLEWVSGINTGGGSTGYADSVKGRFTISRDNSKNTLYLQMNSLRAEDTAVYYCAKDWMATTPWGQGTLVTVSS
VL: QTVVTQEPSFSVSPGGTVTLTCGLSSGSVTTNNYPGWYQQTPGQAPRTLIYNTNNRSSGVPDRFSGSILGNKAALTITGAQADDESDYYCALYMSSGSNNAVFGGGTKLTVLG
notes: also called fully humanized 1F2
For the molecule B3, the binding result with neutravidin is listed as “no binding”.

B4: Fab 1B3 (Fab, part only; not given: lambda light chain, V domains shown, not shown: a dimerising Fc or GST)
VH: EVQLVQSGAELRNPGASVKVSCKASGYTFTSYYIDWVRQAPGQGLEWMGRIDPEDGGTKYAQKFQGRVTFTADTSTSTAYVELSSLRSEDTAVYYCARSGRYELDYWGQGTQVTVSS
B4 yielded an OD signal in the competition assay with human IL-1 Beta (human) [1] of 0.444 OD.

B5: Fab 1G1 (Fab, part only; not given: light chain, V domains shown, part only)
VH: EVQLVQSGAELRNPGASVKVSCKASGYTFTSYYTDWVRQAPGQGLEWMGRIDPEDGDTKYAQKFQGRVTFTADTSTSTAYVELTSLRSEDTAVYYCLRSGAYELDYWGQGTQVTVSS
The molecule B5 had an OD signal in the competition assay with human IL-1 Beta (human) [1] of 0.498 OD.

B6: Fab 1A1 (Fab, part only; not given: lambda light chain, V domains shown, not shown: a dimerising Fc or GST)
VH: EVQLVESGGGLVQPGGSLRLSCAASGFTFDDYAMSWVRQAPGKGLEWVSTISWNGGATYYAESMKGRFTISRDNAKNTLYLQMNSLKSEDTAVYYCAKPYYSDYVGVEYDYWGQGTQVTVSS
Regarding B6, the IC50 in the bioassay in the assay with human IL-1 Beta (human) [2] was 10 µg/mL. In the assay with human IL-1 Beta (human) [1], the OD signal in the competition assay was found to be 0.205 OD. In the assay with human IL-1 Beta (human) [3], this molecule yielded an IC50 of 12 µg/mL.

B7: Fab 1C3 (Fab, part only; not given: lambda light chain, V domains shown, not shown: a dimerising Fc or GST)
VH: EVQLVESGGGLVQPGGSLRLSCAASGFTFSSYWMYWVRQAPGKGLEWVSAINTGGGRTYYADSVKGRFTISRDNAKNTLYLQMNSLKSEDTAVYYCAKGTSADGSSWYVPADPYDYWGQGTQVTVSS
In the assay with human IL-1 Beta (human) [2], B7 gave an IC50 in the bioassay of 3 µg/mL. Also, the OD signal in the competition assay with human IL-1 Beta (human) [1] came out at 0.386 OD. In addition, the concentration at which competition is seen with human IL-1 Beta (human) [3] is over 50 µg/mL.

B8: wt 1E2 gene3-Fab fusion on phage (Fab, V domains shown)
VH: EVQLVESGGGLVQPGGSLRLSCTASGFTFSNYWMYWVRQAPGKGLEWVSAINAAGSTYYADSVKGRFTISRDNAKNTLYLQMNSLQSEDTALYYCANLPRWGQGTQVTVSS
VL: QTVVTQEPSLSVSPGGTVTLTCGLSSGSVTSGNYPGWYQQKPGQAPRTLIYNTNSRYSGVPNRFSGSISGNKAALTITGAQPEDEADYYCAVYIGSSSYPVVFGGGTHLTVLG
notes: crude phage extract; also called wt 1E2 (phage)
With B8, the binding result with neutravidin is given as “no binding”.

B9: hum 1E2 gene3-Fab fusion on phage (Fab, V domains shown)
VH: EVQLVESGGGLVQPGGSLRLSCAASGFTFSNYWMYWVRQAPGKGLEWVSAINAAGSTYYADSVKGRFTISRDNSKNTLYLQMNSLRAEDTAVYYCANLPRWGQGTLVTVSS
VL: QTVVTQEPSFSVSPGGTVTLTCGLSSGSVTSGNYPGWYQQTPGQAPRTLIYNTNSRSSGVPDRFSGSILGNKAALTITGAQADDESDYYCAVYIGSSSYPVVFGGGTKLTVLG
notes: also called fully humanized 1E2
For the molecule B9, the binding result in the assay with neutravidin is “no binding”.

B10: safe variant 1E2 gene3-Fab fusion on phage (Fab, V domains shown)
VH: EVQLVESGGGLVQPGGSLRLSCAASGFTFSNYWMYWVRQAPGKGLEWVSAINAAGSTYYADSVKGRFTISRDNSKNTLYLQMNSLQSEDTAVYYCANLPRWGQGTQVTVSS
VL: QTVVTQEPSFSVSPGGTVTLTCGLSSGSVTSGNYPGWYQQKPGQAPRTLIYNTNSRSSGVPDRFSGSILGNKAALTITGAQPDDESDYYCAVYIGSSSYPVVFGGGTHLTVLG
notes: The text says 'partially humanized V lambda fused to human C lambda and CH1'; also called safe 1E2
Turning to B10, the binding result in the assay with neutravidin is given as “no binding”.
